Assay results from patent US11358997.

Biological target: mouse leptin receptor on Ba/F3-mLR cells (mouse) (UniProt P48356)
Test: cell-based or functional assay

Chain of UniProt P48356 (P48356 22-1162): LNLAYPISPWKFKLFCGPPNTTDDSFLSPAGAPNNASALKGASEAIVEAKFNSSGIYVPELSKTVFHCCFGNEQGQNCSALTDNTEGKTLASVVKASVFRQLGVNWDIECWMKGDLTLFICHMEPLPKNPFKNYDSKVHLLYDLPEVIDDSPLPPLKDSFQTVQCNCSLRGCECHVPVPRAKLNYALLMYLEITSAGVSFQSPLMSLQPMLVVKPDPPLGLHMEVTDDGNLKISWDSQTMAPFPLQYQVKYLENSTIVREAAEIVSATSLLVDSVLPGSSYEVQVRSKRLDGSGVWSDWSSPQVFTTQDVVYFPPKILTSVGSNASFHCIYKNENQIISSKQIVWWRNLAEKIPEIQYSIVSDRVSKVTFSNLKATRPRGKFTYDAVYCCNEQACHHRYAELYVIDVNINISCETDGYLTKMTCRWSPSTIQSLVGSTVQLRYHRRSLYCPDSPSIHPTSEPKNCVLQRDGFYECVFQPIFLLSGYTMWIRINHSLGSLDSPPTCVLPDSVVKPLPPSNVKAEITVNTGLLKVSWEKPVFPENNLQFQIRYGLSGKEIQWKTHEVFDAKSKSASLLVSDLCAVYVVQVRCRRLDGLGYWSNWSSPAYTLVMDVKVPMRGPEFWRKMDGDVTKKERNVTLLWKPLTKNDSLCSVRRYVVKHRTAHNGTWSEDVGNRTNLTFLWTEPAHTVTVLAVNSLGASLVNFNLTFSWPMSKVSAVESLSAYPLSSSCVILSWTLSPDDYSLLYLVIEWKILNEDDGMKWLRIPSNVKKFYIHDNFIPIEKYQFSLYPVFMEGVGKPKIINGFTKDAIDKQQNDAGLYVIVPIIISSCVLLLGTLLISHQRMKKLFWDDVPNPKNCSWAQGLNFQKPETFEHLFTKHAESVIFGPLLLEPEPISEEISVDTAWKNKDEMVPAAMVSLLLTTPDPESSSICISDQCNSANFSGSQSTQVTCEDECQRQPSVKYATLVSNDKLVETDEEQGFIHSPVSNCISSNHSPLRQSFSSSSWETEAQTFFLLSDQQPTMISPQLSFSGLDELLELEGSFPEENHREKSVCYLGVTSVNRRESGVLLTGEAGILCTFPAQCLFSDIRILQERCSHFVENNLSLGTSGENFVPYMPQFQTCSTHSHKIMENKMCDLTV

Row | induction of proliferation of Ba/F3-mLR cells (XTT assay, 4 days) (times less potent) | Substance
1 | 10 | scTNF WT-6xGGS-mLeptin L86N-FLAG (from UniProt P01375 77-233; P01375 80-233; P01375 80-233; P41160 22-167)
2 | 3 | scTNF WT-6xGGS-mLeptin L86S-FLAG (from UniProt P01375 77-233; P01375 80-233; P01375 80-233; P41160 22-167)
